The record followed here is US20140044713A1.

In assay [1] the target is Lgr4 (endogenous, or expression construct whose tag is not stated) (human) (UniProt Q9BXB1). Nature of the assay: cell-based or functional assay.
The target is the same in assay [2]. Nature of the assay: TAP (anti-FLAG, anti-HA) + mass spectrometry, bait stably expressed in LS174T cells, Exp 7, prey LGR4.
In assay [3] the target is LRP6 (endogenous) (human) (UniProt O75581). Nature of the assay: TAP (anti-FLAG, anti-HA) + mass spectrometry, bait stably expressed in LS174T cells, Exp 7, prey LRP6.
The target in assay [4] is Lgr5 (endogenous, or expression construct whose tag is not stated) (human) (UniProt O75473). Nature of the assay: TAP (anti-FLAG, anti-HA) + mass spectrometry, bait stably expressed in LS174T cells, Exp 7, prey LGR5.
Assay [5] deals with LRP5 (endogenous) (human) (UniProt O75197). Nature of the assay: TAP (anti-FLAG, anti-HA) + mass spectrometry, bait stably expressed in LS174T cells, Exp 7, prey LRP5.
Assay [6] has the same target. Nature of the assay: TAP (anti-FLAG, anti-HA) + mass spectrometry, bait stably expressed in LS174T cells, Exp 4, prey LRP5.
Assay [7] addresses Frz6 (endogenous, LS174T cells) (human) (UniProt O60353). Nature of the assay: TAP (anti-FLAG, anti-HA) + mass spectrometry, bait stably expressed in LS174T cells, Exp 6, prey Frzd6.
Assay [8] has as its target LRP6 (endogenous) (human) (UniProt O75581). Nature of the assay: TAP (anti-FLAG, anti-HA) + mass spectrometry, bait stably expressed in LS174T cells, Exp 3, prey LRP6.
For assay [9], the target named is LRP5 (endogenous) (human) (UniProt O75197). Nature of the assay: TAP (anti-FLAG, anti-HA) + mass spectrometry, bait stably expressed in LS174T cells, Exp 5, prey LRP5.
Assay [10] addresses LRP6 (endogenous) (human) (UniProt O75581). Nature of the assay: TAP (anti-FLAG, anti-HA) + mass spectrometry, bait stably expressed in LS174T cells, Exp 5, prey LRP6.
Assay [11] addresses Frz6 (endogenous, LS174T cells) (human) (UniProt O60353). Nature of the assay: TAP (anti-FLAG, anti-HA) + mass spectrometry, bait stably expressed in LS174T cells, Exp 5, prey Frzd6.
The target of assay [12] is LRP6 (endogenous) (human) (UniProt O75581). Nature of the assay: TAP (anti-FLAG, anti-HA) + mass spectrometry, bait stably expressed in LS174T cells, Exp 4, prey LRP6.
The target in assay [13] is Frz6 (endogenous, LS174T cells) (human) (UniProt O60353). Nature of the assay: TAP (anti-FLAG, anti-HA) + mass spectrometry, bait stably expressed in LS174T cells, Exp 3, prey Frzd6.
Assay [14] concerns the target LRP5 (endogenous) (human) (UniProt O75197). Nature of the assay: TAP (anti-FLAG, anti-HA) + mass spectrometry, bait stably expressed in LS174T cells, Exp 6, prey LRP5.
Assay [15] has as its target Frz6 (endogenous, LS174T cells) (human) (UniProt O60353). Nature of the assay: TAP (anti-FLAG, anti-HA) + mass spectrometry, bait stably expressed in LS174T cells, Exp 4, prey Frzd6.
The target in assay [16] is Frz7 (endogenous, LS174T cells) (human) (UniProt O75084). Nature of the assay: TAP (anti-FLAG, anti-HA) + mass spectrometry, bait stably expressed in LS174T cells, Exp 2, prey Frzd7.
For assay [17], the target named is LRP6 (endogenous) (human) (UniProt O75581). Nature of the assay: TAP (anti-FLAG, anti-HA) + mass spectrometry, bait stably expressed in LS174T cells, Exp 2, prey LRP6.
For assay [18], the target named is Lgr5 (endogenous, or expression construct whose tag is not stated) (human) (UniProt O75473). Nature of the assay: TAP (anti-FLAG, anti-HA) + mass spectrometry, bait stably expressed in LS174T cells, Exp 2, prey LGR5.
For assay [19], the target named is Frz5 (endogenous, LS174T cells) (human) (UniProt Q13467). Nature of the assay: TAP (anti-FLAG, anti-HA) + mass spectrometry, bait stably expressed in LS174T cells, Exp 2, prey Frzd5.
Frz5 (endogenous, LS174T cells) (human), sequence (Q13467 27-585): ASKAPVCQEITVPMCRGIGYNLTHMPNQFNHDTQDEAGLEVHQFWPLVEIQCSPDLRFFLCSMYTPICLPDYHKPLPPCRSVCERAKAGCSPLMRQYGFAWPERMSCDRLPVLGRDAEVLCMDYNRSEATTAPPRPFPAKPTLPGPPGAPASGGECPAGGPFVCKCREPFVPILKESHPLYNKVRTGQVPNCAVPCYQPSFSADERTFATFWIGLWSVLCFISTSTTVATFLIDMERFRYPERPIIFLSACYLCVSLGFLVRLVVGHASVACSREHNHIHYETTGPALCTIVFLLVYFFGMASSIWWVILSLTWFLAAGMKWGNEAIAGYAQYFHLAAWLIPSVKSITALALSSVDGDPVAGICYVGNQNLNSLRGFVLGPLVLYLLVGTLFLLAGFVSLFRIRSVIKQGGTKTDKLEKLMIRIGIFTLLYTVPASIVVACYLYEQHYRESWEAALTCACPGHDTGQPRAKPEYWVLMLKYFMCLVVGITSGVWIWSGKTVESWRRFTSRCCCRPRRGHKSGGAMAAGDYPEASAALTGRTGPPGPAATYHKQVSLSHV

Lgr5 (endogenous, or expression construct whose tag is not stated) (human), sequence (O75473 22-907): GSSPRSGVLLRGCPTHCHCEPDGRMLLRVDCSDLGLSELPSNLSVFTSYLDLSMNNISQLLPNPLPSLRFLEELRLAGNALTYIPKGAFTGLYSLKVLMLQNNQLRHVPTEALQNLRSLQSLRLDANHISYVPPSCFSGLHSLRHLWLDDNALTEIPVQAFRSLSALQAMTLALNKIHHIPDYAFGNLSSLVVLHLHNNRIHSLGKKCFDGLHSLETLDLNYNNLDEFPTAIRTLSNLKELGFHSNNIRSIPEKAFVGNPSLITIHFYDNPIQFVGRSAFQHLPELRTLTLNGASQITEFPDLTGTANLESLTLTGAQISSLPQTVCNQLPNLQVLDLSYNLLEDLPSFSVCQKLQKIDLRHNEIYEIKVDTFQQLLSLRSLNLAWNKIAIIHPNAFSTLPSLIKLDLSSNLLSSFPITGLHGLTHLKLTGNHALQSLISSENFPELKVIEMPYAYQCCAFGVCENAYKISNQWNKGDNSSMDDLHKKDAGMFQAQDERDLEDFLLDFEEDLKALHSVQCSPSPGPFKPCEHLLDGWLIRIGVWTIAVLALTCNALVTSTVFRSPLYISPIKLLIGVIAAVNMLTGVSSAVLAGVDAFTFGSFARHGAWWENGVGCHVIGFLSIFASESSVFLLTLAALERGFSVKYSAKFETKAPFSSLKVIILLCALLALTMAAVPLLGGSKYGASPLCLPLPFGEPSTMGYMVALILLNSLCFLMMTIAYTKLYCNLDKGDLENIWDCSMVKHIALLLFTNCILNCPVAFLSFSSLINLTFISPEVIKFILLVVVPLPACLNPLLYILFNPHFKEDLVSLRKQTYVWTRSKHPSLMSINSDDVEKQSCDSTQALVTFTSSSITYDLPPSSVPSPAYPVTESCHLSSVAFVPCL
LRP5 (endogenous) (human), sequence (O75197 32-1615): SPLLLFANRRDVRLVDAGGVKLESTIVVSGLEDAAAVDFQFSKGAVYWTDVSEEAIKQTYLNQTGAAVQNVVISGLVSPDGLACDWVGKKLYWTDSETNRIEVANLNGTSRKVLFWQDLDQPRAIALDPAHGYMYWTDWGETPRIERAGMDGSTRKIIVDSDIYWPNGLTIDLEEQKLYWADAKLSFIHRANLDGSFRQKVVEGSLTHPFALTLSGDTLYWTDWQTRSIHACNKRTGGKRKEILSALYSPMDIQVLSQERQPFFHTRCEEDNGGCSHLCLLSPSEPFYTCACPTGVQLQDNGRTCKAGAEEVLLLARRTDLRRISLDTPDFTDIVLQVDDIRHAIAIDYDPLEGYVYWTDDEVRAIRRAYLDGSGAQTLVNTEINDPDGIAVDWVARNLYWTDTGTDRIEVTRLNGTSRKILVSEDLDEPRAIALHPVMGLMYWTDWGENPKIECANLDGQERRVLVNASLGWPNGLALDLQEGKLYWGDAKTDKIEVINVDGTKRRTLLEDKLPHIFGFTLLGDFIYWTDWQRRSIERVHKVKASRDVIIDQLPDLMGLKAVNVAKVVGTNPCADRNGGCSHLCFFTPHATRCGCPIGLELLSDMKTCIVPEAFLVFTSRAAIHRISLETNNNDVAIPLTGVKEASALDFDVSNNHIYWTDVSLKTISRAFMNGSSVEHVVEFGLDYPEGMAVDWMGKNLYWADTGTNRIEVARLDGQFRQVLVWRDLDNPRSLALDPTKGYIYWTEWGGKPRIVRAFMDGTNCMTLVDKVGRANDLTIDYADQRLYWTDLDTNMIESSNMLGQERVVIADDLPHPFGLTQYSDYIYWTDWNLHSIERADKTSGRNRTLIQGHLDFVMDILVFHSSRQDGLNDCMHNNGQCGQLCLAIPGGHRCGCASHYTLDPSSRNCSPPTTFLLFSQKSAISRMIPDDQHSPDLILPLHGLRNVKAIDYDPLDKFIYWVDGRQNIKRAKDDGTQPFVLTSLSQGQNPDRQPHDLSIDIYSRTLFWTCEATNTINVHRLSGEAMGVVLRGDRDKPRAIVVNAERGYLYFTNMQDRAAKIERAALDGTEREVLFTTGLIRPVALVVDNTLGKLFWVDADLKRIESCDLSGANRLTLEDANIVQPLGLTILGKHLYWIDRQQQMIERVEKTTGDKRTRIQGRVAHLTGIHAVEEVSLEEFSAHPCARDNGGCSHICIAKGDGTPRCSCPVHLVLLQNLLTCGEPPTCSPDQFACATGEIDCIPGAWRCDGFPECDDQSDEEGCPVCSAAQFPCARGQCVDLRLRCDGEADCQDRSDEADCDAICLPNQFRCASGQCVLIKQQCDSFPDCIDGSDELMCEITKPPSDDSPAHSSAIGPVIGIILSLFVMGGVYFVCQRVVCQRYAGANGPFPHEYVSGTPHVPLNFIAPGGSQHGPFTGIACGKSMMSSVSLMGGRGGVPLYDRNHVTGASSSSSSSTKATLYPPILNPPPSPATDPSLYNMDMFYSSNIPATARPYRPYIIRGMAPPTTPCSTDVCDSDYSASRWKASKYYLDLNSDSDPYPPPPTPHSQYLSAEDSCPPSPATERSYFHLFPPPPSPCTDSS
LRP6 (endogenous) (human), sequence (O75581 20-1613): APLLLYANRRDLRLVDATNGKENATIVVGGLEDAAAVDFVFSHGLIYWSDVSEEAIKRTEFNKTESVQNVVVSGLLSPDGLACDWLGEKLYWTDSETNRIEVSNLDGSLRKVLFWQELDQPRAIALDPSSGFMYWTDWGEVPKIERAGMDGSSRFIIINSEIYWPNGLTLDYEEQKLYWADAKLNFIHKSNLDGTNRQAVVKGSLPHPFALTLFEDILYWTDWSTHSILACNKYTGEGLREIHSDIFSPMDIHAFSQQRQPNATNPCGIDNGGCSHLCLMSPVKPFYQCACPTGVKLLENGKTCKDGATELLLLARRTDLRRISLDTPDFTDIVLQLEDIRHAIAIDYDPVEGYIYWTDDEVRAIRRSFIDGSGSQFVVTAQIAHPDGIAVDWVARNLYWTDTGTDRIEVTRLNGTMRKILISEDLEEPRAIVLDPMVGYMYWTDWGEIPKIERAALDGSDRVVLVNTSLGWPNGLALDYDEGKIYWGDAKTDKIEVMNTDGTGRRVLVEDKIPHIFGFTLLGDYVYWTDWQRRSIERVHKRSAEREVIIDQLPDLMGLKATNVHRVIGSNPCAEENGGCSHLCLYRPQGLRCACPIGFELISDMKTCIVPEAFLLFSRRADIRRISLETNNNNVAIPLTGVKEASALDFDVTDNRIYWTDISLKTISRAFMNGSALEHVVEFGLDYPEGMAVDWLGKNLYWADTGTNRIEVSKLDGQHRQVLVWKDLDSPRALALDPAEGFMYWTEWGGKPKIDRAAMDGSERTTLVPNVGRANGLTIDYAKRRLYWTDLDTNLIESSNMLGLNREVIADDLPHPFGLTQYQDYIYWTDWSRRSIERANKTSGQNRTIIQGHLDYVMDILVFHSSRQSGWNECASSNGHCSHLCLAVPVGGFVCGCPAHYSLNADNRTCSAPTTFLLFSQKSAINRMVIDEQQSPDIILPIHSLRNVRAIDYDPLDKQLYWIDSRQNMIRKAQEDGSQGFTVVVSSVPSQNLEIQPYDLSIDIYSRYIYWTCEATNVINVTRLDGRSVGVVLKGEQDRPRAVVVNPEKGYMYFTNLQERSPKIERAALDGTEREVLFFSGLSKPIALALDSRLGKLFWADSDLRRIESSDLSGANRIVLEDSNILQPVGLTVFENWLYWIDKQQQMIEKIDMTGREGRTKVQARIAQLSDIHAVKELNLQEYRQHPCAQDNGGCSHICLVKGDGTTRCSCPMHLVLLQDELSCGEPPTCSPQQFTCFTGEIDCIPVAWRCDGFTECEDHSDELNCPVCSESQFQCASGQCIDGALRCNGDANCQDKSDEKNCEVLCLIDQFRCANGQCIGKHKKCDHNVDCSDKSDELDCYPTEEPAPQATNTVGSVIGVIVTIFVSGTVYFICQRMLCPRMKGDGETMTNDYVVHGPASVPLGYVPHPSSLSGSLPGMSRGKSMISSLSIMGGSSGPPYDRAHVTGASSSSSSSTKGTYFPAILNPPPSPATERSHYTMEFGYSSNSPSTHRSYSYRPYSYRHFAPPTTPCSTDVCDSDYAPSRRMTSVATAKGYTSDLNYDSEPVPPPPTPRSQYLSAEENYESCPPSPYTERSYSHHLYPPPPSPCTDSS

In assay [1], “Rspo-1 (as added in the TOPflash assay of FIG. 5B) (from UniProt Q2MKA7 21-263) (ligand)” returned a TOPFlash activity, Wnt3A with Rspo-1 against Wnt3A alone, HEK293T cells of 12 fold.
Regarding “tagged Frizzled5 (Frz5) (from UniProt Q13467 27-585) (receptor)”, the # unique peptides in [2] worked out at 10; in assay [3], 10; in assay [4], 2; in assay [5] it was 3. For the same substance, the MASCOT Protein score (MudPit) in assay [2] worked out at 456; in assay [3] it was 279; in [4] it was 33; in [5] it was 166. The assigned spectra was 30 in assay [2], 14 in assay [3], 2 in [4] and 5 in assay [5].
In the case of “FLAG/HA-tagged Lgr5 (from UniProt O75473 22-907) (receptor)”, the # unique peptides in assay [6] was 2; in [7], 5; in assay [8], 3; in [9] it was 3; in assay [10], 6; in assay [11], 6. Besides, the # unique peptides in assay [12] came to 2; in [13], 1; in assay [14], 1; in assay [15], 1. The MASCOT Protein score (MudPit) was 91 in assay [6]; 140 in assay [7]; 71 in [8]; 122 in [9]; 91 in [10]; 193 in [11]. Besides, the MASCOT Protein score (MudPit) in assay [12] is 43; in assay [13] it was 53; in assay [14] it was 41; in assay [15], 94. The assigned spectra in assay [6] was determined as 3; in assay [7] it was 8; in [8], 3; in assay [9], 3; in assay [10] it was 6; in assay [11] it was 11. The assigned spectra in assay [12] came to 2; in [13], 1; in assay [14] it was 1; in assay [15], 2.
In the case of “FLAG/HA-tagged Lgr4 (from UniProt Q9BXB1 25-951) (receptor)”, the # unique peptides in assay [16] was 1; in assay [17], 3; in [18] it was 7; in assay [19], 1. The MASCOT Protein score (MudPit) in [16] is 87; in assay [17], 32; in assay [18], 62; in assay [19], 22. The assigned spectra in assay [16] was 4; in assay [17], 3; in assay [18] it was 10; in assay [19], 1.
